Results from the DeepSol protein solubility set.

Test: soluble on expression in E. coli; label from the status in PepcDB or PDB records

Row | Sequence | soluble on expression in E. coli
1 | MAHHHHHHMNCKNMDTSYEIINYLTKDELDIDLSCMDKKERYKIWKRLPKCELHCHLDVCFSVDFFLNVIRKYNIQPNMSDEEIIDYYLFSKPGKSLDEFVEKALRLTDIYIDYTVVEDLAKHAVFNKYKEGVVLMEFRYSPSFMSFKHNLDKDLIHEAIVKGLNEAVALLEYKIQVGLLCTGDGGLSHERMKEAAEFCIKHKKDFVGYDHAGHEVDLKPFKDIFDNIREEGISLSVHAGEDVSIPNLNSLYTAINLLHVKRIGHGIRVSESQELIDLVKEKDILLEVCPISNVLLNNVKSMDTHPIRMLYDAGVKVSVNSDDPGMFLTNITDNYEELYTHLNFTLADFMKMNLWAVQKSFVDPDIKNKIISKYF | soluble
2 | MAHHHHHHMNCSSTLACHAVVSAPSTASLITSCWTPQQHCYRQLMKSLRAAYFHDRSKLFWSRHRVLVEFYKYSEEANEEAVKQLVAIGLEVAAFIDHHMRTDVERIVKHNETMMALPVAQAKKFRSDYLLAEKQHDSWCKQKIKNIMKRRPPPPYPFF | not soluble
3 | MAHHHHHHMNDDNTLALLYEGINLIFDKWTILRLAVTNNWGGINSEDKKKKLIEYVHNFVTNNNAKNKLCDYLRDEMSVLFNVDIEDHSDIEIADLILDLYQNLKKKNYDILEKIKNIQIYDISCSQEKNLIQNYEQGDEENMEDEYSSSNYSEYSNEESLDKE | soluble
4 | MAHHHHHHMNERTSGGAMSTIQFGGTMTTTLSQAKNMDFSNDSPRRRRNRHNVILFPNHRDRLACDPLNFFCVYATYEYRWSDTTLEAERNIFALVDSMVAAVRKAFDDAFERWKNMPAFVQHAHTLRSAVSFSSALSTNTLLHMYSHADNVARHTTLRKTLGSMLPSLPAANPRQEMNICSASSAGRSTFSKGALPRAAHRERREEEEEAVMKNLAKQWIPPHNGPKCRLVLDIVASRKTLGDDPVISDPYRLGQKVFSFTRRNYLREVINTFVGISDSGVTLVGRDILYPFRSTGGGSPKPSVKMNSLSGNRRNLSGSAISGLPIDSGDILGVAASGGVAAKVSGFEQILANTIPVPRMVPVPPTNTEKVDNIRLLVCFPPNDISGSVA | soluble
5 | MAHHHHHHMNFLNDEILKKSCEIEKLQDRLLDYESKLLIYENNNEIKILKKNEDHLRKLLSKHIHRNEQLLNTTFLLQKSTLENNSLEKKIIELRAKSYRKDQEIKKLQETKSIRKSPSSNCSHNSQEYSMDLIDDLNEDNYNLKYYHNNSIVGDQENSVYTSKKSYDKNITIGSLADTEKRSIKIKNIIPHSHNNEDPVHFALCEYLNCFKKNNLSIKINKLDDNTYLLNDKKVVISFINGDLYVEDDASPIKLQDYLLKTVVR | soluble
6 | MAHHHHHHMNIVTSYFLVRKLPGTLAMGGDVLEHQNARQREYMECLRLNQQHPGVASIHLIVEGADAYEHLLKHVLCNPHFQNASTLTTSTAPASARHRRRHAAPIVPVVRFASGMPLYADFFAYANQLLSHRLTMVCNADVYLSPEHFSLSAVEDLFRQSSTLPPPHAAPCGSCQPSTADLAEREAMRPKSAPKRANPLALALTRYESDSPLDAPFLFDYRGSHDAFVLVPPVPPSFVRSVAHPQNCYKAENIVLHELQQSGYLTLNPTLGDGVRLVHRHATDLRQWFPPVDESRYGRAQPNTLAQAASRIREEARVRSLPPSV | not soluble
7 | MAHHHHHHMNLDEFNELVEQRNRIEREIQENVNFLEAPENKGVGLHGKLVDEEGFPRNDIDIYSIRVARNKVICLKNDYLNVSKRIEEYLHKVHTSHPVIRVQRSKAKKEEGDDPNESPPESCTQDYDESAPGYELLIEEAKRSTFAMIDELVENSPSHKAGLRINDYIIQFGDVQKKKKKNEENEKEDADIFNRIAAYMRNNPTRIKVKILREGKIFFYFVFPNRTPNGLYIGCHLTPISVGGGSV | not soluble
8 | MAHHHHHHMNSSTVSEDIALAGIKKEVLRSLPFWKSFVELREAYHRRPRVFSCDVSIKSRKACSHFVGFDVLWVQSEVVLVSWRRPSKRNRANDFPPEFVEVHLTFGSMHFVHQNVHLVGDHCSYSLQSVVLLQRPEQLQCVAGNMVHFAFLVYGMLHISQRDGFLTDPRAILPPPNSAVMLLGMGGNSMERGIRYILGEDAHIYIAEIEPAVVSTCRFAGLLKENANTHVCLDSAERTIQKCPEKCTFIFMDLFEPLSGNMVNTMPLIRQAFDILAPNGILLINEHSIPTVEHLLPLLHLFGDHNVQFVNVRGWNESIIAATKPGGNADGLGRKCSKRLATDVLNDFDHTFPGWMPDKNYILRSQILYAKPLTLKLRARQWTS | not soluble
9 | MAHHHHHHMNVVDFTWSRIRLFDHLAVILIYEELLKNPLCKITNVYESETRKYKPYPLNTLQMTKLVSIYFKISSKECMMLAEKLYNKGYISYPRTETNYFPDSMNLHKIINELRKNDNFGWYANKLCEEHKYQKPRKGKMNDKAHPPIHPVKNMNKSLKVEEKEWKLYEFICKHFLAVCSNDAIGYNTKVTAKIQEEQFFCKGLKIKEKNYLEIYTYEKWNDKIIPSFQVDDEFYPTSLLIEEGITQPPKYLSESNLLTLMDKFSIGTDATMHEHIENIQKRNYVIKNSKSLFIPTNLGIALVQSYKKFKDIGIDLTDPSLRAKMEKDMSLVASGVKQKNEIIRNYIDIMKYIYQEIYNRIDVLDKNIHYYLNNPDQLSYT | not soluble
10 | MAHHHHHHMPPQQPVGIMDNEEEFPVEEPPPMDPLIKLLHLRHTYTSQYVDEAVREEVKAAMLKIAHEHNMAPYLRFASEMFCWTVDEEQLRAMDAINATKLEELDARIKDAQENLGDVEVRDGLLARCHHFARIGDMEECLKFNNECSGKTLAAGSKLDLCFQRILLGLAFSDNEVAANGICSAHRLMKEGDWERRNRLKVYEGLFYVYIRDFKKGSELLLDSISTFAASELMDFNEFILVTVVASLPVLSRSQLKKCILDSPEVHSANIKNVFHLVTAIYECRYKEVFPTLDAVCQQLRGIVYLSQHVNYFFREVRVLVFKQFLDSYSSVTLKSMSNAFGIPSPVLDSMLGTLISNERIACKMDRVSDSITTYRGDTTNLDYHRIVKNGDLLLNRIQKLSRLAEV | not soluble
11 | MAHHHHHHMPSMSASRQAPKVSATARATKFSTIRKLPTAEHSTSPVAAAPTSSEEPSRLALISFDVDATIDTVNLLHEEQHRVSEEDATDKRIGRYHYAQLVARLNEQRSLYQSTAMFVETMLKEVNHSTEASVAMKASAATWGLKLLAKHAGHGAINAVLESLLPALYCEYNPKKLCSAPPAVQLQVRRPDVIMDNPYFTHSMFVDEVQVDKRSATKLQKSLEAALRANDQRRSIVCHLIERRRQQQLEVTFRCWRHHVRQQHLLRMMGDNTAKQRAEEMSRLRVQTVFYHWKLLVERSRSTYLTERLHEAAFQLENAKNQFQLQCYRADRLVKTAKEATEEMERVSQINKGLQRQVDELKEEQVRKEREYKEKLTRNVTQVLKLLETYDSLARVLLHSKQADEYVMPEKPLLARHSQSGDGGQEASENEASRLR | not soluble
12 | MAHHHHHHMPTVSSSTPSPASTPTVGVPPGKVWLNADEPNDEYSLFCTEAIPPKVPGTVRIWVDGCFDMLHFGHANALRRARRLGDELFVGCHSDEEVMRFKGPPIMHAEERYEALRACKWVDHVVENYPYCTRLKDIERFEIDYVVHGDDISVDLNGRNSYQEIIDAGKFKVVKRTKGISTTDLVGRMLLCTKNHMLKSVDEVQLENSLLEHSPTMPCLTTSRKIVQFSNNSSPKPGDRIVYVDGSFDLFHIGHIRVLQKARELGDYVIAGVYEDQVVNEHKGKNYPIMSFNERVLGVLSCRYVDEVVMGVPFDVSKDVIDGLHINVVVGDKFSDLVVEEGGSTRYEVPKAMGIYHEVDSGCILSTDSLIDRVVENRLDFLKRQAEKRIKDTKSQEIKPDEYRKLREAS | not soluble
13 | MAHHHHHHMPVIKEYINPAGLRLDGRRPNEPRRLALEFGKISGCDGCCTVVSGLSHVCATVYGPREVSNRLEGKYNEVTITCDVVVAAFAGERRREQQRYSRLSEDISASVLDVARSVVLLSQYPNSQIHICIEVLKQDGSDKAACINAACLALIDASIAMKDVVYTQTVGLIEGFDVVDLTTEEIHSQCPSICITVQGHDPTNIVWMESNSRLAPEVITRLVKVAQKASTDVFETALRGPLEEHAATVLRLQANLGNIE | soluble
14 | MAHHHHHHMQAAAPGQTLSSALRFWADVSYGDAPPAALIDYPPLGFEEDSSRLTVGALQASRDAAAADSRRQLGLKTQRASEDVDGSAHPALLLGVKEESSTLAVTREELEGEEGPAWLQPPLLLQLDDGLEDRQFAAATTTGRTAPVPHLRYDGAGLLAVMHVHSSGIAYVGYPRASDTVSSAEPTDGLVRLPDNVPPADPLAVAAPTPAPICSLPMSSSTGFVRGLLGLS | not soluble
15 | MAHHHHHHMQFVSDLGLELSVFVCHLYAKYSEEPLKAFHELVLRTRSSCCGSDDSSNYLSLATLSGTQWYQDMTKRYASLRQRLRGERDNDVQEAREVTLSLYPQGCRVSEYADAIVTSAAMLTSNIPSTVLERFASCRVKDLNEKGCVSISADELASDLIERPVLDSFTPSRWWESDKTAPSSSLKDGLVAVKSIGLRVQPVEILIFYTYNGRPRRRFIPLDGLLHENSPIAPLLRRLVRSHGMLVSESQLRSYLQRLQELMRKSVESHASTVKPEGPLQPQFDWKQQIGYSDNAPAAHNTGEEEQHMTSAKTGEPEVNKADVGLLYRDPEAALKNVDLNDADDITLQEFKAKMNEGFMQNALRPGDPGYVYDKRLDVNPTERSEWDDSD | not soluble
16 | MAHHHHHHMQFVVVDGSWPVVPCAIPRSQLLARSVKDTDHGEDGGGQSVLPGHALFTLCQEVLDTSASKTKAPPELATLDMTFLRDPQSGPLGALRLYTFKSVSHQFFAVEDLVSSGCLIVFTSHWASLTSAALLTGVRTTHKEKDDSAKSSRRRIENNTGSGTREVSASRASSLMGRGRSVLQKFSRAETYFTSVASATQRDFEMVNELLLSGTIRMNAHLESFLCSVCGNLPRRTMTTSCCGAVVCLLCAPTLSSSSVLREEVVCAVCGEMPLTNPEAHVSRDAEVMRLVRELRVLYHPQVSAAACRAMPGETQPPPTPFNVHHAGLPVPICDMNEPTGSVLGSVFMGPS | not soluble
17 | MAHHHHHHMQPKMTAPLTMKDNNKCLSVRVGSTLEIHLEGNPTTGYTWTRVGFVGKEMLSDEHLEVTSKYTPKPVSGSMVGAGGSYTVFVKPLRKGQHAVQLVYARPFEGPKPDNERYTLHLNVE | soluble
18 | MAHHHHHHMQPMVLPYVDRKPPISKVMDARVLVWRESERMLRNGEGAAECSYAQKLQVLRSQQLADARKYMDTSAAMRSVKPVLATSSVDADDDDEFCRKRSRESEGPSVDEIRRFEGKLGETLALELTLWSLRRGSHGGVRSQRYTTALHALQDTQKLLRKTLQQMEEINALRFLEQQQFLKVNSEKARLLHVRLRNVRALENILRGNGKRRGSTLLATLE | not soluble
19 | MAHHHHHHMQQENRHLSSADLFKKFTLQNVAQIANISNKEQSQIRGELTEQYPLLADFWEDIMPKKADIMLVRCHDQVHCVTLVSSQPEVLFFRHHNSPYIPHLKLLHKYPFILPRQQVDIGGCKYVVSGANVMCPGLTSEGGYITPGLAAGAIVAIHVEQKEHAIAVGRMLMSSEEIERVNNGPGIENIHHLGDGLWMNRVLSSSHIGAR | soluble
20 | MAHHHHHHMQRDADRMKRKKEEHRDEEEFGAFRFADGSMYEGKFCRRESNADGTAKSQFPSAHPPTTRNAQQQELPPPIPFHHGKGVFKDAGGLVYDGCWVEGDMTGEGLLRFPSGATYEGSMYANSFWGTGTYTWPDGSRYEGQWENNKMHGKGTYIDAKGKRWAGKFHHGQGVGLLAEVSL | soluble
